This passage reports stoichiometry N (DOCK10^DHR2 per RAC1) and dH results from article doi:10.1101/2022.06.15.496229.

The target in test [1] is DHR2 domain of human DOCK10 (DOCK10^DHR2, residues 1695-2151) (human) (UniProt Q96BY6). Kind of test: SEC-MALS.
For test [2] the target is unchanged. Kind of test: ITC.

DHR2 domain of human DOCK10 (DOCK10^DHR2, residues 1695-2151) (human), sequence (Q96BY6 1695-2151): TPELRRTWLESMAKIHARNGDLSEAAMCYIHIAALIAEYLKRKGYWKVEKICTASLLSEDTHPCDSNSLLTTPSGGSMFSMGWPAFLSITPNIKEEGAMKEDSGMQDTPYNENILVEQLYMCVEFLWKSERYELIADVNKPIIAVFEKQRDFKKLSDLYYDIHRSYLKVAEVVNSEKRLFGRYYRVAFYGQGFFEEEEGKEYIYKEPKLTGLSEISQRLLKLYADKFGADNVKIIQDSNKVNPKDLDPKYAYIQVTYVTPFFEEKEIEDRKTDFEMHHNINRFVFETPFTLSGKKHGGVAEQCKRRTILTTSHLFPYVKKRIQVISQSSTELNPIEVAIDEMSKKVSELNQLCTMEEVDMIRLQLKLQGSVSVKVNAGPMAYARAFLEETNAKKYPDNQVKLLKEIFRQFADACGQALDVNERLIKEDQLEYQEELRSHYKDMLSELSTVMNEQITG

“RAC1 (residues 1-192) (from UniProt P63000 1-192) (natural protein)” had a stoichiometry N (DOCK10^DHR2 per RAC1) in test [1] of 2.
For “RAC3 (residues 1-192) (from UniProt P60763 1-192) (natural protein)”, the dH in test [2] was -2.05 kcal/mol.
